Source: patent US10287317B2, “Proprotein convertase subtilisin kexin type 9 (PCSK9) allosteric binding ligands to modulate serum low density lipoprotein (LDL) levels” (SRX Cardio, LLC, priority 2013, dated 2019)
*1 amine or outer side, *2 acyl side, *3 side chain or, on linkers, in order; H or OH if unused. Where a SMILES comes first, the peptide text is derived from it. Where no end group is shown, it is not given here. [ ]: non-standard residue; d: D form. The star is where a group is joined. Asp(NHCH2Ph) = Asp side-chain benzylamide, O=C(C[C@H](N[*:1])C(=O)[*:2])NCc1ccccc1; Cys(CH2-Ph) = S-benzyl-Cys, O=C([C@H](CSCc1ccccc1)N[*:1])[*:2]; Phe(3-CH2NH2) = O=C([C@H](Cc1cccc(CN[*:3])c1)N[*:1])[*:2]; Bip = N[C@@H](Cc1ccc(-c2ccccc2)cc1)C(=O)O; d(pS) = N[C@H](COP(=O)(O)O)C(=O)O; hCha = N[C@@H](CCC1CCCCC1)C(=O)O; hPhe = N[C@@H](CCc1ccccc1)C(=O)O; pS = N[C@@H](COP(=O)(O)O)C(=O)O; Cit = NC(=O)NCCC[C@H](N)C(=O)O; Bn = c1ccc(C*)cc1; βAla = NCCC(=O)O

The molecules below were run against T1, PCSK9-WT protein (Homo sapiens, UniProt Q8NBP7) (assay: Cellular diI-LDL uptake in HuH7 cells with PCSK9-WT). Conditions: HuH7, 1.0 μg/ml PCSK9-WT, 100 uM peptide (FIG. 2).
T1 construct: V5
T1 sequence (Q8NBP7 153-692): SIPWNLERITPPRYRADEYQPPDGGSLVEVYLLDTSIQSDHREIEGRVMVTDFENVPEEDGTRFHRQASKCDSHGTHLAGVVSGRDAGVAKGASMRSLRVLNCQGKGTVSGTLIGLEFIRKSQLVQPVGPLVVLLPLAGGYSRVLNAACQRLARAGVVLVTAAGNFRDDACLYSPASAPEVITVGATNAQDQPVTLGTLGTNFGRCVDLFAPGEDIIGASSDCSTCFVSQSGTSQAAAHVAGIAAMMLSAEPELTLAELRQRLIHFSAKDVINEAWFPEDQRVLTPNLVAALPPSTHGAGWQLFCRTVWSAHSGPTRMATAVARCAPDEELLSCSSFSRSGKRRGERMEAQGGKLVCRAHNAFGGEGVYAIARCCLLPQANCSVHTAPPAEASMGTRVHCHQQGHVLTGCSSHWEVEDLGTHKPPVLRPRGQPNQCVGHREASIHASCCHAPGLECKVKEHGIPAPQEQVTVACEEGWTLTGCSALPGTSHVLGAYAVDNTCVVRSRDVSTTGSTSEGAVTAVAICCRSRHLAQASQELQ
Format: cell-based
Method: (§1) HuH7 cells were incubated in a 96-well plate for a total of 20 h in the absence (Cnt) or presence of 1.0 μg/ml PCSK9-WT protein alone (WT) or mixed with 100 uM of various SRX peptides. After 16 h, dil-LDL (5 ug/ml) was added to the incubation mixtures. After 4 h, fluorescence was measured (Ex: 520 nm/Em: 575 nm; cutoff: 550 nm). Dil-LDL uptake is calculated as RFU corrected for the number of cells.
(§2) LDL internalization was measured by uptake of a fluorescently tagged LDL molecule (diI-LDL) in the absence of exogenous PCSK9 (Cnt), in the presence of exogenous PCSK9 (normal PCSK9=WT, D374Y mutant PCSK9=DY), or in the presence of PCSK9 and a tested peptide (indicated as SRX##, or SRX if a single peptide results is shown in a graph).
(§3) Cells, such as HepG2, HuH7, FL83B or a cell line transfected with a short-hairpin PCSK9 knockdown sequence such as HepG2/shPCSK9, HuH7/shPCSK9, FL83B/shPCSK9, were seeded at 2×10^4 cells/well in a 96-well plate and cultured at 37 degC in RPMI+10% FBS. After approximately 24 hours, the cell media was aspirated off and replaced with RPMI+3-5 mg/mL LPDS (Lipoprotein Deficient Serum, Millipore) media for further experimentation. Benjannet et al., “Effects of the prosegment and pH on the activity of PCSK9: evidence for additional processing events” J Biol Chem. 285(52): 40965-40978 (2010).
(§4) Peptide activity was assessed by culturing cells with: i) no SRX peptide/PCSK9 protein complex (control, Cnt); ii) PCSK9 protein; and iii) SRX peptide/PCSK9 complex. Various permutations of these experimental conditions were also used, including: i) the addition of wild type PCSK9 (WT); ii) a mutant PCSK9 (e.g., D374Y mutant PCSK9, DY); iii) various SRX peptides and/or PCSK9 at the same concentration and/or combinations; iv) various SRX peptides and/or PCSK9 at different concentrations and/or combinations; v) the use of different cells, as mentioned above, with or without a transfected short-hairpin sequence; vi) a pre-incubation of the PCSK9 and SRX peptide (e.g., 1, hour, 2 hours, 3 hours, 4 hours etc.); vii) various temperatures including, but not limited to, body temperature (e.g., 37° C.), supraphysiologic temperature (e.g., 39° C.); and viii) with/without agitation (e.g., shaker or gentle periodic vortexing).
(§5) Cells were cultured using one of the combinations of conditions described in the preceding paragraph for 16 hours. After 16 hours, a quantity of diI-LDL (Low density lipoprotein coupled with 1,1′-dioctadecyl-3,3,3′,3′-tetramethylindocarbocyanine perchlorate) needed to bring the media concentration to 5 ug/mL of diI-LDL was added to the culture well and cells continued to be cultured under these new conditions for 4 additional hours. At the end of the 4-hour incubation period (20 total hours of cell culture), the cellular uptake was halted with the addition of 4% formaldehyde in 10 uM Hoechst 33342 in a solvent such as deionized autoclaved water or PBS, and specimens were incubated at 20° C. for 20 minutes. Cell specimens were rinsed twice with PBS and then fluorescence measured with excitation at 360 nm and emission detected at 460 nm to measure DNA content. Cell specimens were then be incubated with a 0.1% SDS in a 0.1 N NaOH solution while being shaken for 10 minutes. Fluorescence of the diI-LDL in the specimens were quantified using excitation at 530 nm and resulting emission at 580 nm.
Fluorescence measurements of diI-LDLR were normalized to estimated cell numbers, determined from the Hoechst fluorescence. Data was analyzed for the different experimental conditions and reported as percentage relative fluorescence units (RFU) of the Cnt specimen. Percent inhibition was calculated as the difference in RFU of a peptide exposed specimen to the RFU of PCSK9-no peptide, divided by the RFU difference in PCSK9-no peptide to RFU of Cnt specimen, also expressed as [(SRX:RFU)−(PCSK9-no peptide:RFU)]/[(PCSK9-no peptide:RFU)−(Cnt:RFU)]×100.

LDL internalization (dil-LDL % uptake vs Cnt) | Molecule
positively modulated (increased) | Ile-Leu-Asp-Leu-Ser-Tyr (ILDLSY; not fully specified (C-terminus); printed as Ile-Leu-Asp-Leu-Ser-Tyr) [Compound 10]
negatively modulated (decreased) | Thr-Leu-Asp(NHCH2Ph)-Thr-Trp-Ser-Ser-Ser(p) (TL[Asp(NHCH2Ph)]TWSS[pS]) [Compound 4]

These molecules were tested against T1, PCSK9-WT protein (assay: FACS analysis of cell surface LDLR in HuH7 cells with PCSK9-WT). Conditions: HuH7 cells, FACS, exogenous WT PCSK9 plus peptide (FIG. 1, 100 μM).
Format: cell-based
Method: HuH7 cells were incubated for 18 h in the absence (Cnt) or presence of 0.75 μg/ml PCSK9-WT protein alone (WT) or mixed with 100 μM of various SRX peptides. The level of LDLR at the cell surface was measured by FACS using anti human LDLR Ab and a suitable secondary Ab labeled with Alexa 647. Cell surface LDLR is reported relative to Cnt. % inhibition of activity was calculated as [SRX−WT]/[Cnt−WT]×100%.
See, FIG. 1. In that experiment, the LDLR levels of a hepatocyte culture model (HuH7 cells) were measured by fluorescence activated cell sorting (FACS) in accordance with Example III. Cell surface LDLR is reported as a percentage of Basal levels of LDLR, indicated by the Cnt_Amm.Bic, Cnt_Ac.Acid, and Cnt bars in the top graph. See, FIG. 1 (top panel). LDLR levels in the presence of exogenous PCSK9 is indicated as WT_Amm.Bic, WT-Ac.Acid, and WT, and Exogenous PCSK9 in combination with a tested peptide is indicated as SRX##. The measured LDLR levels are reported as % versus basal controls (Cnt) of the respective group. […] This was further shown a percent inhibition (% inhibition was calculated as [SRX−WT]/[Cnt−WT]×100%) where positive modulation (increase) of LDLR level is reported as positive % inhibition, and negative modulation (decrease) of LDLR level is reported as negative % inhibition. See, FIG. 1 (bottom panel).
Benjannet et al., “Effects of the prosegment and pH on the activity of PCSK9: evidence for additional processing events” J Biol Chem. 285(52): 40965-40978 (2010). The cells were then washed 3× with solution A (calcium/magnesium-free Dulbecco's PBS (Invitrogen) containing 0.5% bovine serum albumin (Sigma) and 1 g/liter glucose)). The cells were then incubated for 10 min at room temperature with 1× Versene solution (Invitrogen) followed by the addition of 5 ml of solution A. The cells were then incubated for 40 min in solution A containing a human LDLR mAb-C7 (1:100; Santa Cruz Biotechnology). Following washes, the cells were then incubated for 20 min in solution A containing a secondary antibody (Alexa Fluor 647 donkey anti-mouse antibody; 1:250; Molecular Probes).
Following suspension in PBS containing 0.2% of propidium iodide, the cells were analyzed by FACS for both propidium iodide (dead cells) and LDLR in live cells with Alexa Fluor 647 using the FACS BD LSR (BD Biosciences).

modulation of LDLR cell surface level | Molecule
negatively modulate (decrease) | CC(=O)N[C@@H](Cc1ccc(O)cc1)C(=O)N[C@@H](Cc1c[nH]c2ccccc12)C(=O)NCC(=O)O [Compound 14, Ac-Tyr-Trp-Gly] (Ac-Tyr-Trp-Gly-OH)
negatively modulate (decrease) | Ac-Trp-Ala-Ser(p) (Ac-Trp-Ala-[pS]) [Compound 12]
positively modulate (increase) | Thr-Leu-Gly(CH2CH2cyclohexyl)-Thr-Trp-Ser-Ser-Ser(p) (TL[hCha]TWSS[pS]) [Compound 5]

Same assay, conditions: Huh-7; FACS, HuH7 cells, peptide at 100 uM; read-out: Cell Activity of Exemplified Peptides (inhibition)

inhibition at 100 µM [%] | Molecule
> 30 | CC(C)C[C@H](NC(=O)[C@@H](N)[C@@H](C)O)C(=O)N[C@@H](CSCc1ccccc1)C(=O)N[C@H](C(=O)N[C@@H](Cc1c[nH]c2ccccc12)C(=O)N[C@@H](CO)C(=O)N[C@@H](CO)C(=O)N[C@@H](COP(=O)(O)O)C(=O)O)[C@@H](C)O [Compound 3, Thr-Leu-Cys(CH2-Ph)-Thr-Trp-Ser-Ser-Ser(p)] (H-TLC(Bn)TWSS[pS]-OH)
< -30 | CC(=O)N[C@@H](Cc1ccc(O)cc1)C(=O)N[C@@H](Cc1c[nH]c2ccccc12)C(=O)NCC(=O)O [Compound 14, Ac-Tyr-Trp-Gly] (Ac-Tyr-Trp-Gly-OH)

Each molecule was assayed against PCSK9-D374Y protein (Homo sapiens, UniProt Q8NBP7, D374Y) (assay: Cellular diI-LDL uptake in HuH7 cells with PCSK9-D374Y). Conditions: HuH7, 0.5 μg/ml PCSK9-D374Y, 100 uM peptide (FIG. 3).
PCSK9-D374Y protein, sequence (Q8NBP7 153-692 D374Y): as the sequence (Q8NBP7 153-692) above, with D222Y counted along it
Format: cell-based
Method: as §1, with “0.5” for “1.0”, “PCSK9-D374Y” for “PCSK9-WT”, “(DY)” for “(WT)”
as §1, with “0.5” for “1.0”, “PCSK9 GOF-D374Y” for “PCSK9-WT”, “(DY)” for “(WT)”, “increasing concentrations” for “100 uM”
as §2, §3, §4, §5
Fluorescence measurements of diI-LDLR were normalized to estimated cell numbers, determined from the Hoechst fluorescence. […]

LDL internalization (dil-LDL % uptake vs Cnt) | Molecule
negatively modulated (decreased) | CC(=O)N[C@@H](Cc1ccc(O)cc1)C(=O)N[C@@H](Cc1c[nH]c2ccccc12)C(=O)NCC(=O)O [Compound 14, Ac-Tyr-Trp-Gly] (Ac-Tyr-Trp-Gly-OH)
positively modulated (increased) | Thr-Leu-Hph-Thr-Trp-Ser-Ser-Ser(p) (TL[hPhe]TWSS[pS]) [Compound 6]

What follows are molecules tested against PCSK9-WT protein (human proprotein convertase subtilisin/kexin type 9) (human, UniProt Q8NBP7 31-692, limits assumed) (assay: cell-based or functional assay). Conditions: not given.
PCSK9-WT protein (human proprotein convertase subtilisin/kexin type 9), sequence (Q8NBP7 31-692 limits assumed): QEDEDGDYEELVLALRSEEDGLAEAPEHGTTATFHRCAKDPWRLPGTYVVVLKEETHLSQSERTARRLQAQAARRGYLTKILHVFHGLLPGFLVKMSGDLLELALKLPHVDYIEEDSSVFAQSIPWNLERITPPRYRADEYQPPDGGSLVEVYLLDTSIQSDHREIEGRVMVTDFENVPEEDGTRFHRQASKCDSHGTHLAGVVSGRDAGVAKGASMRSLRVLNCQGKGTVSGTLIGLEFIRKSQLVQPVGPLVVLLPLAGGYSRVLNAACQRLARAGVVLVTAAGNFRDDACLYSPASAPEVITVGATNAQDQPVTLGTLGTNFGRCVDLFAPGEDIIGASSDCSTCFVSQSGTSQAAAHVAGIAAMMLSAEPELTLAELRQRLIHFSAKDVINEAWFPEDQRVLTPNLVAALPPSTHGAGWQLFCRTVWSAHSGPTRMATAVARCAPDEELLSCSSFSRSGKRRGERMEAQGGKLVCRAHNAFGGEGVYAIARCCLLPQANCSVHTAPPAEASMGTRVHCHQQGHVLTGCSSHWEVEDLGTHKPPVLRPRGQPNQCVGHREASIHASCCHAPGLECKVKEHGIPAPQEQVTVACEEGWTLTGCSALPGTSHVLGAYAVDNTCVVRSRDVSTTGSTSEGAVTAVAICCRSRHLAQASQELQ

Molecule | Cell Activity of Exemplified Peptides (FACS of cell surface LDLR, HuH7/shPCSK9 cells) | cell surface LDLR levels, FACS in HuH7 cells, 10 nM recombinant PCSK9 [% reversal]
[βAla][Phe(3-CH2NH2)]V[d(pS)]FW [SRX56: β-Ala-Phe(3-CH2NH2)-Val-D-Ser(p)-Phe-Trp] | > 30 % inhibition above control at 100 uM | 
TL[Cys(CH2-Ph)]TWSS[pS] [SRX60: Thr-Leu-Cys(CH2-Ph)-Thr-Trp-Ser-Ser-Ser(p)] | > 30 % inhibition above control at 100 uM | 
TL[Asp(NHCH2Ph)]TWSS[pS] [SRX61: Thr-Leu-Asp(NHCH2Ph)-Thr-Trp-Ser-Ser-Ser(p)] | > 30 % inhibition above control at 100 uM | 
LDLFFS [SRX66: Leu-Asp-Leu-Phe-Phe-Ser] | > 30 % inhibition above control at 100 uM | 
VLELYW [SRX65: Val-Leu-Glu-Leu-Tyr-Trp] | > 30 % inhibition above control at 100 uM | 
VYVRFW (not fully specified; printed as Val-Tyr-Val-Arg-Phe-Trp) [SRX55: Val-Tyr-Val-Arg-Phe-Trp] | > 30 % inhibition above control at 100 uM | 
TL[hCha]TWSS[pS] [SRX62: Thr-Leu-Gly(CH2CH2cyclohexyl)-Thr-Trp-Ser-Ser-Ser(p)] | > 30 % inhibition above control at 100 uM | 

Continued, values first:

Cell Activity of Exemplified Peptides (FACS of cell surface LDLR, HuH7/shPCSK9 cells) | cell surface LDLR levels, FACS in HuH7 cells, 10 nM recombinant PCSK9 [% reversal] | Molecule
> 30 % inhibition below control at 100 uM |  | Ac-Tyr-Trp-Gly [SRX72: Ac-Tyr-Trp-Gly]
 | > 60 | VYV[Cit]FW-NHEt [SRX314: Val-Tyr-Val-Cit-Phe-Trp-NHEt]
> 30 % inhibition below control at 100 uM |  | Ac-Trp-Ala-[pS] [SRX69: Ac-Trp-Ala-Ser(p)]
> 30 % inhibition below control at 100 uM |  | [Bip]-Ala-[pS]-morpholine [SRX73: Phe(4-Ph)-Ala-Ser(p)-morpholine]
 | 60 | VYV[Cit]FW-NH2 (N-terminus assumed; SMILES CC(C)[C@H](N)C(=O)N[C@@H](Cc1ccc(O)cc1)C(=O)N[C@H](C(=O)N[C@@H](CCCNC(N)=O)C(=O)N[C@@H](Cc1ccccc1)C(=O)N[C@@H](Cc1c[nH]c2ccccc12)C(N)=O)C(C)C) [SRX310: Val-Tyr-Val-Cit-Phe-Trp-NH2]
 | > 60 | VYVRF-{NH(cyclopentyl)} [SRX321: Val-Tyr-Val-Arg-Phe-NH(cyclopentyl)]
